System: MS2 coat protein
Assay: apparent KD of MS2 coat protein; designed switch direction (-1 OFF switch, 1 ON switch): 1; higher = weaker reporter binding
Outline: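 Designed RNA switches sharing common flanks were transcribed on Illumina chips by stalled E. coli RNA polymerase. They were titrated with SNAP-549-labelled MS2 coat protein, from 0.7 or 1.5 nM doubling to 3 µM, in Tris-HCl pH 7.5 buffer with KCl, MgCl2, BSA, DTT, tRNA and Tween-20. Titrations ran without input, with 200 uM small-molecule ligand, or with an oligonucleotide input. The apparent KD of each design is the median over its clusters, after curve-fitting of normalised cluster fluorescence.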

[1] = Eterna round: R95, input ligand: FMN 200 uM
[2] = Eterna round: R95, input ligand: microRNA oligo, concentration not stated
[3] = Eterna round: R95, input ligand: none
[4] = input ligand: microRNA oligo, concentration not stated

Row | Sequence | apparent KD of MS2 coat protein [1] [nM] | apparent KD of MS2 coat protein [2] [nM] | apparent KD of MS2 coat protein [3] [nM] | apparent KD of MS2 coat protein (input ligand: FMN 200 uM) [nM] | apparent KD of MS2 coat protein [4] [nM] | apparent KD of MS2 coat protein (input ligand: none) [nM]
1 | GGUAAACAUGAGGAUCACCCAUGUAAUAAUAUGGGAGGAUAUGGGAAUUAAUUAAUUAAACCAGAAGGCCUAAUGU [Mat - Same State 1 - D87] (puzzle: Same State 1) | 53.1 | 536 | 519 |  |  | 
2 | AGCUAGUACCGAGGAUAUACUUACAUGAGGACUACCCAUGUAUACAUGGUUCAAUAGGACUACAUGUAGAAGGCGGUACUAGCA [jandersonlee JLSSNG2 1.24 1FMN F5CU+F7U.1] (Eterna round: R96, puzzle: Same State NG 2) |  |  |  | 595 | 26.1 | 75.6
3 | GUGCUCGUGUGAGGAUAUGCUUCCGUUUCGGCUGCAGAAGGUACUAUUAUACAUGAGGAUCACCCAUGUCGCUUUUCUCCGGUG [salish99_SSNG1_r04_915] (Eterna round: R96, puzzle: Same State NG 1) |  |  |  |  | 21.8 | 
4 | AGUCCAGCCUGAGCUGGACAAAAGCAUGUACAUGAGGAUCACCCAUGUUCAUGUACAAGCUUUUUGCUCGUCUUACC [salish99_208a_r3_079] (puzzle: Sensor for hsa-mir-208a) | 669 | 15.8 | 722 |  |  | 
5 | GGCCGGCCGAACGGAGGGCCACAUGAGGAUCACCCAUGUACAUAGGAUAUCAUGUCAACGAGGCAUGAGAAGGGUGAUUAAAGC [Orenriaran] (Eterna round: R96, puzzle: Same State NG 3) |  |  |  | 65 | 72.9 | 57.7
6 | AAUUAUUUACAUGAGGAUCACCCAUGUAUUAUUACAAGCUUUAUCCUCGUUUUAUUUAUUAUUAUUAUUAUUAUUAA [benbell_design1] (puzzle: Sensor for hsa-mir-208a version 2) | 369 | 33 | 326 |  |  | 
7 | GGUCCAGCCUGAGCUGGACUAUAGUAUGUACAUGAGGAUCACCCAUGUCAUGUACAAGUAUGUUGUUUGUCUUGAAA [Sensorship 5 - Jieux - Sensor for hsa-mir-208a] (puzzle: Sensor for hsa-mir-208a) | 72.3 | 65.4 | 103 |  |  | 
8 | GUUCGUUUGAUAGGAUAUCGCUUAACAUGAGGAUCACCCAUGUUUACCACGCUGGUUUUUCGUACCGAGAAGGAUUCUGAUGAU [JL JR sub007 mod 1] (Eterna round: R96, puzzle: Same State NG 2) |  |  |  | 37.9 | 43.6 | 47.1
9 | AGUCCAGCCUGAGCUGGACAAAAGCAUGUACAUGAGGAUCACCCAUGUUCAUGUACAAGCUUUUUGCUCGUCUUGCA [salish99_208a_r3_104x] (puzzle: Sensor for hsa-mir-208a) | 450 | 15 | 415 |  |  | 
10 | UCUUGGUUUUUGCUCGUUUUUUGUGUUGAACAUGAGGAUCACCCAUGUAUUGUACGGUCCGAUUUAAUAAUGGUCCA [JMF 38] (puzzle: Sensor for hsa-mir-208a) | 30.3 | 18.3 | 32.4 |  |  | 
11 | GAAUUAAGAGUAGGAUAUGUGGGCGAGCUGCCACCCACAUGAGGAUCACCCAUGUAUGGACACUCACAGAAGGGCUUAUUCAAC [Eternabot solution 37] (Eterna round: R96, puzzle: Same State NG 2) |  |  |  | 68.8 | 60.5 | 64.8
12 | AAUUUAAUACAUGAGGAUCACCCAUGUAAAUUAAUUAAGAUCAAGGAUAUCAGCUCGAAUAGAGCUGAGAAGGUGAUCACAUGU [SSNG3/19-A1] (Eterna round: R96, puzzle: Same State NG 3) |  |  |  |  | 244 | 
13 | UUGUGUUUGCGAGGAUAUCGUUUGUUGAAGUUACGAGAAGGCGCUCUCUUUACAUGAGGAUCACCCAUGUCUUUGAUGCAUGAU [JR_SSNG1_Sub072] (Eterna round: R96, puzzle: Same State NG 1) |  |  |  | 81.1 | 53.5 | 75.1
14 | UUCCCAGCGGGAGGAUAUGGUGCCUUGUUGGUGCUAGAAGGUCCAACAUGAGGAUCACCCAUGUGGGAGUGGUCUAAUGACCUC [SS NG10LRO08] (Eterna round: R96, puzzle: Same State NG 1) |  |  |  | 301 | 181 | 347
15 | UACUAUCUAUCUCAGGAUAUCAUGUCAAAGACAUGAGGAUCACCCAUGUACCAGGAAACUGGUUAUGAGAAGGGAGAUAGAUAGA [Mat - Same State 2 - Mod - D39] (puzzle: Same State 2) | 98.2 | 45.1 | 234 |  |  | 
16 | UGUUGUAUUACAGGAUAUCUAGUAGUUUUAUUUAGAGAAGGGUAUUCACAUGAGGAUCACCCAUGUAUAUACGAGGAAGUUGUG [JMF's solution 36] (Eterna round: R96, puzzle: Same State NG 1) |  |  |  |  | 29.7 | 

Row | Sequence | apparent KD of MS2 coat protein [1] [nM] | apparent KD of MS2 coat protein [2] [nM] | apparent KD of MS2 coat protein [3] [nM] | apparent KD of MS2 coat protein (input ligand: FMN 200 uM) [nM] | apparent KD of MS2 coat protein [4] [nM] | apparent KD of MS2 coat protein (input ligand: none) [nM]
17 | AACAAACAUGAGGAUCACCCAUGUACAGACCUGGACAUUGUCGAGGAUAUCAGCAAGAAAACAGCUGAGAAGGUGACGCCAGAG [Eternabot solution 6] (Eterna round: R96, puzzle: Same State NG 3) |  |  |  | 30.8 | 52.2 | 70.3
18 | AGAGAACAUGAGGAUCACCCAUGUAAGAGAAGUGUAGGAUAUGUGAGGAGCAGAGGAGGAACAGAAGGACAUGGAG [JR_SS!_Sub072] (puzzle: Same State 1) | 34.6 | 35.3 | 53.8 |  |  | 
19 | GGACGUCAUCUCACUGAUUAAACAUGAGGAUCACCCAUGUCACAGGAUAUGGAUCCGAUUAGGAUCCAGAAGGGUGUGACGUCC [Fiskers NG3ss - 43] (Eterna round: R96, puzzle: Same State NG 3) |  |  |  | 21.4 | 19.3 | 24.2
20 | GGCACAAAAGCACAGGAUAUGCAAAAGAACACAUGAGGAUCACCCAUGUAGCCAAAUAACGGGCAGCAGAAGGGUGGGACUGCCA [Ceridi] (puzzle: Same State 2) | 78.2 | 693 | 485 |  |  | 
21 | AAGAGAGAAAUACAGGAUAUGAGGAAAGGAACAUGAGGAUCACCCAUGUAAGAGAAAGGGAAAGAUCAGAAGGGUAGAGAAGAGA [JR_SS2_Sub001] (puzzle: Same State 2) | 76.6 | 66.1 | 264 |  |  | 
22 | GGAAAACAUGAGGAUCACCCAUGUAAUAAUAUGGGAGGAUAUCAGAUUUAAUUUAAUUUAUGAGAAGGCCUAAAGG [Mat - Same State 1 - Mod of Eli - D64] (puzzle: Same State 1) | 85 | 43.2 | 30.6 |  |  | 
23 | CGCAUCAUUGUUACAUGAGGAUCACCCAUGUUUUCGAGUGGAGAGGAUAUCGUAACAGUAUAAAUCGAGAAGGCUCUAUAGUAU [JR_SSNG3_Sub082] (Eterna round: R96, puzzle: Same State NG 3) |  |  |  | 34.1 | 77.1 | 81.6
24 | GCAGUACACGCAGAGGAUAUGUCGGUAACGACAUGAGGAUCACCCAUGUGUACGGAAGUACUCAGACAGAAGGCUGUGUACUGCU [Same State 2 - Hyphema v.3] (puzzle: Same State 2) | 19.4 | 79.1 | 96.2 |  |  | 
25 | ACAUGAGACCAAGGAUAUCUUGUACCUACAUGUGACAUGAGGAUCACCCAUGUGGUAAGUAUGAGGGAGAAGGUGGAGAUAUGU [Equivalence 25 - Jieux - Same State NG 2] (Eterna round: R96, puzzle: Same State NG 2) |  |  |  | 26.2 | 18.8 | 36.7
26 | GAGCGCUGUCGAGAGGAUAUGCGGUGAUGGACAUGAGGAUCACCCAUGUUAGCGAUAGCAUUACGGUAGAAGGCUCUACAGCUGC [Mat - Same State 2 - Mod of UCT - D87] (puzzle: Same State 2) |  | 22.3 |  |  |  | 
27 | CUUUUUAAUGCAGGAUAUGAUCAACAUGAGGAUCACCCAUGUGGUGUUGUGAGUAAGGAGAGUGAUCAGAAGGGCAUCUCCUCA [SS-NG2-LRO06] (Eterna round: R96, puzzle: Same State NG 2) |  |  |  | 186 | 73.6 | 83.6
28 | GGUACACAUGAGGAUCACCCAUGUCGUAUGACAUGAGGAUAUGUACAGACUUCGGUCUGUACAGAAGGCAUGUGUC [SS1 - 1011 Omei Mod 4] (puzzle: Same State 1) |  | 24.5 |  |  |  | 
29 | AGCGAACAUGAGGAUCACCCAUGUAGACCGCGUGUGAUAACACAGGAUAUCAAAGGAAGAAGGAGUGAGAAGGGUGGGAAGGAG [Default title] (Eterna round: R96, puzzle: Same State NG 3) |  |  |  | 93.6 | 53.7 | 75.1
30 | GGCGUCUGUCAAGGAUAUGCUACCGUUUCGGUAGCAGAAGGUGAUCACAUGAGGAUCACCCAUGUUUAGGCCAACAGGCCCGCC (Eterna round: R96, puzzle: Same State NG 1) |  |  |  | 1270 | 222 | 1410
31 | UAUCCAUAGAUAGGAUAUUAGAGAACAUGAGGAUCACCCAUGUUUGGCUUGGUUUUAAGCUAAUCUGAGAAGGAUCUUGAUGAA [SameState NG2 #8] (Eterna round: R96, puzzle: Same State NG 2) |  |  |  | 85.5 | 185 | 119
32 | UGCCAUAGUAUAUUGGUACGUGCUUUUUGACAUGAGGAUCACCCAUGUCCUCGUCAUAUGCGCAGUCCGUAGACUGC (puzzle: Sensor for hsa-mir-208a) | 328 | 234 | 374 |  |  | 
